Reference: patent US20240209099A1 (SUZHOU TRANSCENTA THERAPEUTICS, published 2024)

T1: human VEGFR3 protein (human, UniProt P35916 25-776)
T1 construct: also called Sino Biological 10806-H08H
T1 sequence (looked up): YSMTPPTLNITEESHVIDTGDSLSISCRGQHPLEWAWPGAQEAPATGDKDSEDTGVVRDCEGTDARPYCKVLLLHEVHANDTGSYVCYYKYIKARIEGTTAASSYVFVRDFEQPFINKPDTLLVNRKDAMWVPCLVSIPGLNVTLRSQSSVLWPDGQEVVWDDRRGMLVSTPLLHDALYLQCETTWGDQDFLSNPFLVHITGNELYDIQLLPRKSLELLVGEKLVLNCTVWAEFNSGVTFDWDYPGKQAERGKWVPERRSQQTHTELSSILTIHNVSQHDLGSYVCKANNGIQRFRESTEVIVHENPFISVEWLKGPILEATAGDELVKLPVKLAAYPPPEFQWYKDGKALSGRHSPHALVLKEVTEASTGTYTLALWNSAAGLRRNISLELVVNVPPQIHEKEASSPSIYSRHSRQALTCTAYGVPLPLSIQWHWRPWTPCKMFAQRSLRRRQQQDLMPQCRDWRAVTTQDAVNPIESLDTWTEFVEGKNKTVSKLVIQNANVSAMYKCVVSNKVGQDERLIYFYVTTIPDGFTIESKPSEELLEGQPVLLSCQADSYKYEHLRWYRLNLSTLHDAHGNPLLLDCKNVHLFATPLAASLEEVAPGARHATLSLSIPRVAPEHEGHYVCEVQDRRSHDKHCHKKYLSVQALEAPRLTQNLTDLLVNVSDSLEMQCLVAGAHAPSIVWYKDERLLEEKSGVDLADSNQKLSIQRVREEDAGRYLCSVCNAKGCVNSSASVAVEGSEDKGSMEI

T2: Recombinant Rhesus macaque VEGFR2/KDR Protein, His tag (rhesus macaque)
T2 construct: Expressed in HEK293, bought from ACRO Biosystems; also called rhesus VEGFR2-his; rhesus VEGFR2
T2 chain: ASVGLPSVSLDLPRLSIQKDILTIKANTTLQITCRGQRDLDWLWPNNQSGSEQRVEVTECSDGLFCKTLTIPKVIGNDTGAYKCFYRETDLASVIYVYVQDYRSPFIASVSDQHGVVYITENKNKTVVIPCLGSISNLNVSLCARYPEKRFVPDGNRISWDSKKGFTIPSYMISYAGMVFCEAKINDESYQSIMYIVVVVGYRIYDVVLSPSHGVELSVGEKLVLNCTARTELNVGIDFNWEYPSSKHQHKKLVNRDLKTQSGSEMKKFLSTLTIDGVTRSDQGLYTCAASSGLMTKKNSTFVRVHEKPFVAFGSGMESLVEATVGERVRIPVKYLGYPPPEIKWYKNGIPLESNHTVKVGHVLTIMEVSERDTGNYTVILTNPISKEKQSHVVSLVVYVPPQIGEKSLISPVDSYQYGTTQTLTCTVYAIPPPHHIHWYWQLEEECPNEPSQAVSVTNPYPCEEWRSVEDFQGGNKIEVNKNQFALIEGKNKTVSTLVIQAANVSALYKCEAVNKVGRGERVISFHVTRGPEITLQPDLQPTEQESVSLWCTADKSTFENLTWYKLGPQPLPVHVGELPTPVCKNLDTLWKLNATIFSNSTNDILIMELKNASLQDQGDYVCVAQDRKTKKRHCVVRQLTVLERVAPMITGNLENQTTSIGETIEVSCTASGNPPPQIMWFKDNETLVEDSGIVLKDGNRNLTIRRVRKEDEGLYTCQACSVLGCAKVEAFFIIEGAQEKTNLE


How the values were obtained:
[1] = biological target: T3, Recombinant Human VEGFR2/KDR Protein, His tag (hVEGFR2-his) (human, UniProt P35968 20-764); assay: ELISA, hVEGFR2-his coated
T3 construct: Expressed in HEK293, bought from ACRO Biosystems; also called human VEGFR2-his; Human VEGFR2/KDR-His
Description: Same protocol of Example 2 antibody screening by ELISA assay. Briefly, 0.5 μg/ml hVEGFR2-his was coated and serially diluted purified antibodies would bind to coated antigen. Using HRP conjugated goat anti-mouse Fc antibody could detect binding signals of each antibody.
The hybridoma antibodies have similar affinity to human.

[2] = biological target: T3, Recombinant Human VEGFR2/KDR Protein, …; assay: SPR (Biacore), antibody captured by anti-Fc, antigen 2.5-80 nM
Description: A CM5 sensor chip was activated in each flow cell by 7-min injection (10 μl/min) of freshly prepared 1:1 50 mM N-hydroxysuccinimide (NHS): 200 mM 1-ethyl-3-(3-dimethylaminopropyl)-carbodiimide (EDC). Then anti-human Fc antibody (GE Healthcare) in a concentration of 10 μg/ml in 10 mM sodium acetate buffer PH 5.0 was injected onto the activated chip at 10 μl/min (HBS-EP running buffer: 10 mM HEPES, 150 mM NaCl, 3.4 mM EDTA, 0.005% surfactant P20, pH 7.4). The remaining active coupling sites were blocked by 7 min injection of 1M ethanolamine at 10 μl/min. The immobilization level of each flow cell is ˜9000RU. Antibodies were captured in FC2 by anti-human Fc IgG or anti-mouse Fc (GE Healthcare) to 200˜300RU. FC1 was used as the reference cell. Antigen was injected at varying concentrations (2.5 nM, 5 nM, 10 nM, 20 nM, 40 nM and 80 nM) after capture of antibody. The association time for antibody binding antigen is 180s. Surface Regeneration condition is 120s at 10 μl/min in Gly pH1.5. The signals with captured antibody subtracted from those without captured antibody were calculated with Biacore X100 evaluation software ver. 2.0 (Biacore).

[3] = biological target: T4, human VEGFR2 on HUVEC cells (human, UniProt P35968 20-1356); assay: flow cytometry on HUVEC cells, percent shifted cells (Shift%), anti-mouse IgG-PE
T4 construct: also called hVEGFR2 on HUVEC
Description: Log phase HUVEC cells were collected, counted and resuspended in FACS buffer (5% BSA+PBS). 2×10∧5 cells were added to each tube and then washed once with PBS (1500 rpm, 5 mins, RT). Then […] serial diluted VEGFR2 antibodies purified from hybridoma supernatant in FACS buffer were added into corresponding tubes and were incubated at 4° C. for 1 hr. The cells were then washed twice with 1 ml PBS, followed by adding 100 μl/tube of 2nd antibody (1:400 anti-mIgG (H+L)-PE, Cell signaling #8887) in FACS buffer. The cells were incubated at 4° C. for 0.5 hr and then washed twice with PBS, followed by resuspending cells in 600 μl PBS for each sample. The cells were then transferred into FACS tube and the bindings of the antibodies to the cells were detected using flow cytometry (BD Accuri C6) (see FIG. 3).
The percentage of positive binding cells was calculated and fit by Graphpad Prism Software.

[4] = biological target: T3, Recombinant Human VEGFR2/KDR Protein, …; assay: competition ELISA on coated hVEGFR2-his: hybridoma antibody titrated against 100 ng/ml chimeric 002C, anti-human IgG Fc-HRP
[5] = biological target: T3, Recombinant Human VEGFR2/KDR Protein, …; assay: competition ELISA on coated hVEGFR2-his: hybridoma antibody titrated against 100 ng/ml chimeric 054C, anti-human IgG Fc-HRP
[6] = biological target: T3, Recombinant Human VEGFR2/KDR Protein, …; assay: competition ELISA: hVEGFR2-his coated (1 ug/ml), antibody titrated, then 0.3 ug/ml hVEGF-A added and bound VEGF-A detected; blocked ligand hVEGF-A
Description: High-binding clear polystyrene 96 well plates were coated with 100 μl/well of 1 μg/ml hVEGFR2-his overnight at 4° C. After washing and blocking, serial diluted antibodies (from 10 μg/ml to 0.0006 μg/ml) were added and incubate for 1 hour at RT. 0.3 μg/ml hVEGF-A (Acrobiosystem, Cat #VE5-H4210) were added and incubated for 2 hour at RT. Then 100 μl/well of 0.25 μg/ml Biotinylated Rabbit Anti-human VEGF-A (Peprotech, Cat #400-P10Bt) was then added for detecting bound VEGF-A. Then 100 μl/well of a solution of HRP conjugated Neutravidin antibody (Pierce, Cat #31001) and TMB were added sequentially. Finally, reaction was terminated using 0.64M H₂SO₄ and plates were read at 450 nm.

[7] = biological target: T5, human VEGFR1 protein (human, UniProt P17948 27-756); assay: ELISA, 1 µg/ml antigen coated, 1 µg/ml antibody
T5 construct: also called Sino Biological 10136-H08H
T5 sequence (P17948 27-756 limits assumed): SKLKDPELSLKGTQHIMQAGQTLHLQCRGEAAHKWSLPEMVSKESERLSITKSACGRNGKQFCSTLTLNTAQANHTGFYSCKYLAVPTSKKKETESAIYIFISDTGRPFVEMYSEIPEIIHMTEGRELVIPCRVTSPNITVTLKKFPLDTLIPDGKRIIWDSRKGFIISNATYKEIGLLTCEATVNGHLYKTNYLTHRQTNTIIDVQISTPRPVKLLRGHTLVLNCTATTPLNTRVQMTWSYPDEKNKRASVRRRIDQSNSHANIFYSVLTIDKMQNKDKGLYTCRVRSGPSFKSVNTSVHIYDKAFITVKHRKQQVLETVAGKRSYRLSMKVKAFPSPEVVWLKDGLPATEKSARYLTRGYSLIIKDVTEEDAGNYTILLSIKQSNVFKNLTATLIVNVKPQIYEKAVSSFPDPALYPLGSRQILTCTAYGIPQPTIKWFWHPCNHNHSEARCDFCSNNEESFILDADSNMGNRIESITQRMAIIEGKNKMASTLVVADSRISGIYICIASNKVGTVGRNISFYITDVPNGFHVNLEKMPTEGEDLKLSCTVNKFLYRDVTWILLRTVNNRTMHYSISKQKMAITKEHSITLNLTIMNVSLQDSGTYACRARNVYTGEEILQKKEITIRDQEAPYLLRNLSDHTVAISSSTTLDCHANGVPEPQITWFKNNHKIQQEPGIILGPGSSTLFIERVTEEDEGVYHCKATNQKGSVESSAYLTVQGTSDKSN
Description: (§1) Briefly, 1 μg/ml human VEGFR1 (Sino Biological, cat #10136-H08H), VEGFR2 (Acrobiosystem, cat #KDR-H5227) and VEGFR3 (Sino Biological, cat #10806-H08H) protein were coated overnight at 4° C. 1 μg/ml humanized antibodies (48-H3L1 and 54-H2L1, produced in CHO cells or Ramucirumab from Eli Lilly Germany, lot #20150819) were added for binding to coated antigen. Secondary antibody HRP conjugated goat anti-human Fc antibody were added for detection of binding signal.

[8] = biological target: T1, human VEGFR3 protein; assay: ELISA, 1 µg/ml antigen coated, 1 µg/ml antibody
Description: as §1

[9] = biological target: T4, human VEGFR2 on HUVEC cells; assay: flow cytometry on HUVEC cells, MFI, anti-human IgG (H+L)-PE
Description: Same methods with Example 11. Briefly, Log phase HUVEC cells were collected and added to each tube. Then 100 μl/tube serial diluted humanized antibodies in FACS buffer were added and kept at 4° C. for 1 hr. Binding of antibodies to HUVEC was detected by PE signal of the 2nd antibody (anti-hIgG (H+L)-PE), which was added after the 1st antibodies. (see FIG. 15).

[10] = biological target: T3, Recombinant Human VEGFR2/KDR Protein, …; assay: ELISA, hVEGFR2-his coated, anti-human Fc-HRP; antibody made in 293T cells
Description: Same protocol of Example 4 except using HRP conjugated goat anti-human Fc antibody as secondary antibody. Binding to hVEGFR2-his and rhesus VEGFR2-his (Acrobiosystems, Cat #VE2-C52H3) were also analyzed head-to-head.
Same protocol of Example 9.

[11] = biological target: T3, Recombinant Human VEGFR2/KDR Protein, …; assay: ELISA, human VEGFR2-his coated, anti-human Fc-HRP; antibody made in CHO cells
[12] = biological target: T2, Recombinant Rhesus macaque VEGFR2/KDR …; assay: ELISA, rhesus VEGFR2-his coated, anti-human Fc-HRP; antibody made in CHO cells
[13] = biological target: T3, Recombinant Human VEGFR2/KDR Protein, …; assay: competition ELISA: VEGF-A coated (0.25 ug/ml), antibody titrated together with 1 ug/ml human VEGFR2, detection with mouse anti-VEGFR2 serum and anti-mouse Fc-HRP; blocked ligand VEGF-A
Description: (§2) For this assay, 0.25 μg/ml VEGF-A was coated on ELISA plate before a mixture of chimeric antibodies and VEGFR2 were added. To detect free VEGF-A (not bind to VEGFR2), 1:1000 diluted mouse serum (mouse previous immunized with human VEGFR2) were added and HRP conjugated goat anti-mouse Fc antibody was used as secondary antibody.
(§3) Same protocol of Example 10. Briefly, 0.25 μg/ml VEGF-A was coated overnight at 4° C. After blocking, serial diluted 54-H2L1, 48-H3L1, Ramucirumab and 1 μg/ml human VEGFR2 or rhesus VEGFR2 were added at the same time for 2 hour-incubation. After wash, mouse serum containing polyclone VEGFR2 antibody and HRP conjugated goat anti-mouse Fc antibody were added for detection of free VEGF-A coated on the plates (see FIGS. 13A and 13B).

[14] = biological target: T2, Recombinant Rhesus macaque VEGFR2/KDR …; assay: competition ELISA: VEGF-A coated (0.25 ug/ml), antibody titrated together with 1 ug/ml rhesus VEGFR2, detection with mouse anti-VEGFR2 serum and anti-mouse Fc-HRP; blocked ligand VEGF-A
Description: as §2, §3

EC50 [1] [µg/mL]	Kd [2] [pM]	koff [2] [s⁻¹]	kon [2] [M⁻¹ s⁻¹]	EC50 [3] [µg/mL]	IC50 (read off the curve) [4] [µg/mL]	IC50 (read off the curve) [5] [µg/mL]	IC50 [6] [µg/mL]	binding result [7]	binding result [8]	EC50 (read off the curve) [9] [µg/mL]	EC50 [10] [µg/mL]	EC50 [11] [ng/mL]	EC50 [12] [ng/mL]	IC50 [13] [µg/mL]	IC50 [14] [µg/mL]	Binder
0.0232	< 1	< 1e-07	1.14e+06	0.024	~0.07	~0.2	0.0416	–	–	–	–	–	–	–	–	048 (mouse hybridoma antibody) (antibody, V domains shown, Mouse antibody purified from hybridoma; also called mAb048; 5G4) VH: EVQLVESGGDLVKPGGSLKLSCAASGFTFSMYGMSWVRQTPDKRLEWVASISIGGSYTYYADSVEGRFTISRENAKNTLFLQMNSLKSEDTALYYCAREMDGNYDYWGHGTTLTVSS VL: DVMITQDELSNPVTFGESVSISCRSSKSLLYKDGKTYLNWFLQRPGQSPQLLIYLMSTRASGVSDRFSGSGSGTDFTLEISRVKAEDVGIYYCQQLVEYPFTFGSGTKLEIK
–	–	–	–	–	–	–	–	no binding (tested: 1 µg/ml)	no binding (tested: 1 µg/ml)	~0.2	0.0205	8.99	8.64	0.727	0.833	48-H3L1 (humanized Mab48) (antibody, human IgG1, V domains shown, also called 48-H3L1 (CHO)) VH: EVQLVESGGGLVKPGGSLRLSCAASGFTFSMYGMSWVRQAPGKRLEWVASISIGGSYTYYADSVKGRFTISRDNAKNTLYLQMNSLRAEDTAVYYCAREMDGNYDYWGHGTTLTVSS VL: DIVITQDELSLPVTFGESVSISCRSSKSLLYKDGKTYLNWFLQRPGQSPQLLIYLMSTRASGVSDRFSGSGSGTDFTLKISRVEAEDVGIYYCQQLVEYPFTFGSGTKLEIK
